# Positions of bridges follow the written chain, without caps; N, C: chain ends. No end group written: not given here. *: point of attachment. βGlcNAc = CC(=O)N[C@@H]1[C@@H](O)[C@H](O)[C@@H](CO)O[C@H]1*; diGlcNAc = diGlcNAc sugar chain; disialo = disialo sugar chain; GlcNAc = N-acetylglucosamine
# B1: S1-3C(asialo)-SRIF28 (peptide)
# peptide: CCCANSNPAMAPRERKAGCKNFFWKTFTSC
# modifications: Ser 1 replaced by three consecutive Cys each with an asialo sugar chain; disulfide Cys17-Cys28 (SRIF28 numbering)
# B2: C(disialo)-SRIF14 (peptide)
# peptide: CAGCKNFFWKTFTSC
# modifications: disialo sugar chain on Cys added at the N-terminus of SRIF14; disulfide Cys17-Cys28 (SRIF28 numbering)
# B3: S1-5C(disialo)-SRIF28 (peptide)
# peptide: CCCCCANSNPAMAPRERKAGCKNFFWKTFTSC
# modifications: Ser 1 replaced by five consecutive Cys each with a disialo sugar chain; disulfide Cys17-Cys28 (SRIF28 numbering)
# B4: 3C(disialo)-R-K-SRIF14 (peptide)
# peptide: CCCRKAGCKNFFWKTFTSC
# modifications: three N-terminal Cys each with a disialo sugar chain (Cys-Cys-Cys-Arg-Lys- added to SRIF14); disulfide Cys17-Cys28 (SRIF28 numbering)
# Columns and labels:
# SSTR4 [1] = target: T1, SSTR4 (Human, UniProt P31391 1-388); assay: cell-based or functional assay
# T1 sequence (P31391 whole entry): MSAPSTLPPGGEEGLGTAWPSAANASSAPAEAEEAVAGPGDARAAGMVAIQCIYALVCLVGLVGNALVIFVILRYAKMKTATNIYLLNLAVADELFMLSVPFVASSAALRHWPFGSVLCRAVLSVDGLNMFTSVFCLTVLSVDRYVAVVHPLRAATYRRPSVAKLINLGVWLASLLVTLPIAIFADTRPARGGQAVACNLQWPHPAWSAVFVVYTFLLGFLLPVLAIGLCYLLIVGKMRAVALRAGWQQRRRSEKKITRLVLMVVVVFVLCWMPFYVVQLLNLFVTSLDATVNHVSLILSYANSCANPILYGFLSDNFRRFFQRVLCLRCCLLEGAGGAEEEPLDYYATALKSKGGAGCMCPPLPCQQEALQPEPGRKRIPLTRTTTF
# SSTR2 = SSTR2 (Human, UniProt P30874 1-369); assay: cell-based or functional assay
# SSTR2, sequence (P30874 whole entry): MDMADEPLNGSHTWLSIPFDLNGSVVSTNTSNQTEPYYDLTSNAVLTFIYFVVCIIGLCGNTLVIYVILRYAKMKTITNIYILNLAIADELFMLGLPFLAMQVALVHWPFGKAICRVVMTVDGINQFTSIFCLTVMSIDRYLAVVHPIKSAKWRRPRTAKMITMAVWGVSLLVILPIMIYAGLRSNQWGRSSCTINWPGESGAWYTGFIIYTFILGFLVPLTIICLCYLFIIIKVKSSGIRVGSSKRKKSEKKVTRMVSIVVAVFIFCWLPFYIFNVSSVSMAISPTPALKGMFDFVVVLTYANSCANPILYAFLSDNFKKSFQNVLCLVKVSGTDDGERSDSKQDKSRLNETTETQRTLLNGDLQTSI
# SSTR3 [2] = target: T2, SSTR3 (Human, UniProt P32745 1-418); assay: cell-based or functional assay
# T2 sequence (P32745 whole entry): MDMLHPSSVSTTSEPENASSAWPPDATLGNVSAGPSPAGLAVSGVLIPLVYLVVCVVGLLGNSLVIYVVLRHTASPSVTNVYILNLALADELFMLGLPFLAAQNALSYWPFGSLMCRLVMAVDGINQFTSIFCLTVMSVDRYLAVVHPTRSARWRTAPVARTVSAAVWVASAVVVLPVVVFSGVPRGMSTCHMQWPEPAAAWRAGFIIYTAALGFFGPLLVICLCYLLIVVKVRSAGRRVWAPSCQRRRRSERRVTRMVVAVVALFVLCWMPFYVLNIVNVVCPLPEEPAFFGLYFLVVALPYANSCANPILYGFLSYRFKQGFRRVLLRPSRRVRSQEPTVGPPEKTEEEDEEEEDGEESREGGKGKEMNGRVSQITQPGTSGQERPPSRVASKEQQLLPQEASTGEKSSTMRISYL
# SSTR5 = SSTR5 (Human, UniProt P35346 1-364); assay: radioligand competition, membranes
# SSTR5, sequence (P35346 whole entry): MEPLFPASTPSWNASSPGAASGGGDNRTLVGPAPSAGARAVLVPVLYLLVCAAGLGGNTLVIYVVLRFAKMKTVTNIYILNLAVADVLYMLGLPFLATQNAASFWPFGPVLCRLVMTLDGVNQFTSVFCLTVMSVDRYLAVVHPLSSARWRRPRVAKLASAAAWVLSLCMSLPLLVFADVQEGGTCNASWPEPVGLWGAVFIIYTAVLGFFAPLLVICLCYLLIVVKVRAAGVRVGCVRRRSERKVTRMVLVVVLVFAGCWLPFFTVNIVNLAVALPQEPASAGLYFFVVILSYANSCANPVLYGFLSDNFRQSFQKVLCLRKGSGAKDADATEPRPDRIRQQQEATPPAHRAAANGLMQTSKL
# SSTR3 [3] = target: T2, SSTR3; assay: radioligand competition, membranes
# SSTR1-SSTR5 = assay: radioligand competition, membranes
# SSTR1 [4] = target: T3, SSTR1 (Human, UniProt P30872 1-391); assay: cell-based or functional assay
# T3 sequence (P30872 whole entry): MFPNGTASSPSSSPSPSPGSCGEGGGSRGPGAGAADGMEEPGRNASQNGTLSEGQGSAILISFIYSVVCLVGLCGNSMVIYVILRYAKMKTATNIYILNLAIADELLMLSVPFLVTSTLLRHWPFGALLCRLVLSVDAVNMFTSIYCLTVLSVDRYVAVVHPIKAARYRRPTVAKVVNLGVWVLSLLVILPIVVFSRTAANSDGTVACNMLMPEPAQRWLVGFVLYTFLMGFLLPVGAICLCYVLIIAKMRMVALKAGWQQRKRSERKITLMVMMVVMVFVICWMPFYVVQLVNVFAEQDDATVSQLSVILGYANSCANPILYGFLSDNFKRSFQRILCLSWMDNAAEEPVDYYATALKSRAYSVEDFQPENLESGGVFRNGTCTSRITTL
# SSTR4 [5] = target: T1, SSTR4; assay: cell-based or functional assay; remark: listed apart in the source
# SSTR1 [6] = target: T3, SSTR1; assay: radioligand competition, membranes
binder,measurement,setting,value
B1,IC50 of agonist activity (cAMP),SSTR4 [1],100 pM
C(βGlcNAc)ANSNPAMAPRERKAGCKNFFWKTFTSC (disulfide 17-28) [S1C(GlcNAc)-SRIF28],IC50 of agonist activity (cAMP),SSTR2,40 pM
C(disialo)KAGCKNFFWKTFTSC (disulfide 5-16) [C(disialo)-K-SRIF14],IC50 of agonist activity (cAMP),SSTR3 [2],100 pM
C(diGlcNAc)ANSNPAMAPRERKAGCKNFFWKTFTSC (disulfide 17-28) [S1C(diGlcNAc)-SRIF28],IC50 of agonist activity (cAMP),SSTR4 [1],50 pM
C(disialo)C(disialo)C(disialo)C(disialo)C(disialo)C(disialo)C(disialo)C(disialo)C(disialo)C(disialo)ANSNPAMAPRERKAGCKNFFWKTFTSC (disulfide 26-37) [S1-10C(disialo)-SRIF28],IC50,SSTR5,34800 pM
SANSC(disialo)PAMC(disialo)PRERKAGCKNFFWKTFTSC (disulfide 17-28) [N5C(disialo)•A9C(disialo)-SRIF28],binding result,SSTR3 [3],binds
C(disialo)ANSNPAMAPRERKAGCKC(GlcNAc)FFWKTFTSC (disulfide 17-28) [S1C(disialo)•N19C(GlcNAc)-SRIF28],IC50 of agonist activity (cAMP),SSTR2,80 pM
C(disialo sugar chain)ANSC(disialo sugar chain)PAMAPRERKAGCKNFFWKTFTSC (disulfide 17-28) [S1C(disialo)•N5C(disialo)-SRIF28],ratio of Ki to the Ki of unglycosylated SRIF14,SSTR1-SSTR5,15.7
SANSNPAMAPRERKAGCKNFFWKTFC(disialo sugar chain)SC (disulfide 17-28) [T26C(disialo)-SRIF28],IC50,SSTR5,400000 pM
B2,IC50 of agonist activity (cAMP),SSTR4 [1],100 pM
B3,IC50 of agonist activity (cAMP),SSTR1 [4],18000 pM
same,IC50 of agonist activity (cAMP),SSTR2,810 pM
same,IC50 of agonist activity (cAMP),SSTR4 [1],270 pM
same,IC50 of agonist activity (cAMP),SSTR3 [2],2000 pM
C(disialo)RKAGCKNFFWKTFTSC (disulfide 6-17) [C(disialo)-R-K-SRIF14],IC50 of cAMP production suppression (agonist activity),SSTR4 [5],50 pM
B4,Ki,SSTR1 [6],270000 pM
